The target in assay [1] is EGFR on EGFR-bearing tumor cells (human) (UniProt P00533). The assay is described as follows: flow cytometry, HT29 cells, crude bacterial supernatant. In general terms: A flow cytometer gives signals particle by particle.
For assay [2] the target is unchanged. The assay is described as follows: flow cytometry, MDA MB 231 cells, crude bacterial supernatant.
Assay [3] has the same target. The assay is described as follows: flow cytometry, A431 cells, crude bacterial supernatant.

Turning to scFv derived from MAb 425, the mean of arbritary fluorescence units (arbitrary fluorescence units) was 2.5 in assay [1], 21.3 in assay [2] and 85.5 in assay [3].
